Reference: the supplement of paper PMC11246515
± gives the standard deviation of the averaged measurements.

Experiment: total protein half-life in vivo (active degradation + dilution); higher = more stable protein
[1] = E. coli NCM3722 delta-clpP delta-lon delta-hslV, growth: N-lim chemostat, doubling time 6 h
[2] = E. coli NCM3722 delta-clpP, growth: N-lim chemostat, doubling time 6 h
[3] = E. coli NCM3722 delta-hslV, growth: N-lim chemostat, doubling time 6 h
[4] = E. coli NCM3722 delta-lon, growth: N-lim chemostat, doubling time 6 h
[5] = E. coli NCM3722 delta-smpB, growth: N-lim chemostat, doubling time 6 h
[6] = wild type E. coli NCM3722, growth: C-lim chemostat, doubling time 3 h
[7] = wild type E. coli NCM3722, growth: C-lim chemostat, doubling time 6 h
[8] = wild type E. coli NCM3722, growth: C-lim chemostat, doubling time 12 h
[9] = wild type E. coli NCM3722, growth: N-lim chemostat, doubling time 6 h
[10] = wild type E. coli NCM3722, growth: N-lim chemostat, doubling time 12 h
[11] = wild type E. coli NCM3722, growth: P-lim chemostat, doubling time 6 h
[12] = wild type E. coli NCM3722, growth: P-lim chemostat, doubling time 12 h

Sequence | total protein half-life in vivo [1] | total protein half-life in vivo [2] | total protein half-life in vivo [3] | total protein half-life in vivo [4] | total protein half-life in vivo [5] | total protein half-life in vivo [6] | total protein half-life in vivo [7] | total protein half-life in vivo [8] | total protein half-life in vivo [9] | total protein half-life in vivo [10] | total protein half-life in vivo [11] | total protein half-life in vivo [12]
MNQRNASMTVIGAGSYGTALAITLARNGHEVVLWGHDPEHIATLERDRCNAAFLPDVPFPDTLHLESDLATALAASRNILVVVPSHVFGEVLRQIKPLMRPDARLVWATKGLEAETGRLLQDVAREALGDQIPLAVISGPTFAKELAAGLPTAISLASTDQTFADDLQQLLHCGKSFRVYSNPDFIGVQLGGAVKNVIAIGAGMSDGIGFGANARTALITRGLAEMSRLGAALGADPATFMGMAGLGDLVLTCTDNQSRNRRFGMMLGQGMDVQSAQEKIGQVVEGYRNTKEVRELAHRFGVEMPITEEIYQVLYCGKNAREAALTLLGRARKDERSSH [P0A6S7] | 5.183 ± 0.013 h | 5.35 ± 0.8 h | 4.8 ± 0.097 h | 4.88 ± 0.27 h | 4.73 ± 0.34 h | 3.3022 ± 0.00023 h | 5.8 ± 0.063 h | 10.8 ± 1.8 h | 4.99 ± 0.28 h | 8.16 h | 5.73 ± 0.15 h | 12.7 ± 2.1 h
MNQSYGRLVSRAAIAATAMASLLLLIKIFAWWYTGSVSILAALVDSLVDIGASLTNLLVVRYSLQPADDNHSFGHGKAESLAALAQSMFISGSALFLFLTGIQHLISPTPMTDPGVGVIVTIVALICTIILVSFQRWVVRRTQSQAVRADMLHYQSDVMMNGAILLALGLSWYGWHRADALFALGIGIYILYSALRMGYEAVQSLLDRALPDEERQEIIDIVTSWPGVSGAHDLRTRQSGPTRFIQIHLEMEDSLPLVQAHMVADQVEQAILRRFPGSDVIIHQDPCSVVPREGKRSMLS | – | – | – | – | – | – | – | 14.3 h | 6.34 h | – | 5.52 h | –
MNQTLLSSFGTPFERVENALAALREGRGVMVLDDEDRENEGDMIFPAETMTVEQMALTIRHGSGIVCLCITEDRRKQLDLPMMVENNTSAYGTGFTVTIEAAEGVTTGVSAADRITTVRAAIADGAKPSDLNRPGHVFPLRAQAGGVLTRGGHTEATIDLMTLAGFKPAGVLCELTNDDGTMARAPECIEFANKHNMALVTIEDLVAYRQAHERKAS [P0A7J0] | 5.39 ± 0.59 h | 4.61 ± 0.68 h | 1.27 ± 0.23 h | 1.22 ± 0.28 h | 1.02 ± 0.1 h | 1.2 ± 0.25 h | 1.2 ± 0.21 h | 1.35 ± 0.13 h | 1.291 ± 0.0046 h | 1.52 ± 0.086 h | 0.987 h | 1.82 ± 1.1 h
MNQVAVVIGGGQTLGAFLCHGLAAEGYRVAVVDIQSDKAANVAQEINAEYGESMAYGFGADATSEQSVLALSRGVDEIFGRVDLLVYSAGIAKAAFISDFQLGDFDRSLQVNLVGYFLCAREFSRLMIRDGIQGRIIQINSKSGKVGSKHNSGYSAAKFGGVGLTQSLALDLAEYGITVHSLMLGNLLKSPMFQSLLPQYATKLGIKPDQVEQYYIDKVPLKRGCDYQDVLNMLLFYASPKASYCTGQSINVTGGQVMF | 4.14 h | – | – | – | – | 1.19 ± 0.41 h | – | 1.43 h | – | – | – | –
MNRTILVPIDISDSELTQRVISHVEEEAKIDDAEVHFLTVIPSLPYYASLGLAYSAELPAMDDLKAEAKSQLEEIIKKFKLPTDRVHVHVEEGSPKDRILELAKKIPAHMIIIASHRPDITTYLLGSNAAAVVRHAECSVLVVR | 5.69 ± 1.3 h | 4.76 ± 0.38 h | 6.17 ± 2.1 h | 3.98 ± 0.51 h | 4.47 ± 0.24 h | 3.61 ± 0.042 h | 5.75 ± 0.62 h | 10.3 ± 1.1 h | 4.7255 ± 0.0038 h | 7.83 ± 0.48 h | 5.521 ± 0.026 h | 9.62 ± 1 h
MNRWENIQLTHENRLAPRAYFFSYDSVAQARTFARETSSLFLPLSGQWNFHFFDHPLQVPEAFTSELMADWGHITVPAMWQMEGHGKLQYTDEGFPFPIDVPFVPSDNPTGAYQRIFTLSDGWQGKQTLIKFDGVETYFEVYVNGQYVGFSKGSRLTAEFDISAMVKTGDNLLCVRVMQWADSTYVEDQDMWWSAGIFRDVYLVGKHLTHINDFTVRTDFDEAYCDATLSCEVVLENLAASPVVTTLEYTLFDGERVVHSSAIDHLAIEKLTSASFAFTVEQPQQWSAESPYLYHLVMTLKDANGNVLEVVPQRVGFRDIKVRDGLFWINNRYVMLHGVNRHDNDHRKGRAVGMDRVEKDLQLMKQHNINSVRTAHYPNDPRFYELCDIYGLFVMAETDVESHGFANVGDISRITDDPQWEKVYVERIVRHIHAQKNHPSIIIWSLGNESGYGCNIRAMYHAAKALDDTRLVHYEEDRDAEVVDIISTMYTRVPLMNEFGEYPHPKPRIICEYAHAMGNGPGGLTEYQNVFYKHDCIQGHYVWEWCDHGIQAQDDHGNVWYKFGGDYGDYPNNYNFCLDGLIYSDQTPGPGLKEYKQVIAPVKIHARDLTRGELKVENKLWFTTLDDYTLHAEVRAEGETLATQQIKLRDVAPNSEAPLQITLPQLDAREAFLNITVTKDSRTRYSEAGHPIATYQFPLKENTAQPVPFAPNNARPLTLEDDRLSCTVRGYNFAITFSKMSGKPTSWQVNGESLLTREPKINFFKPMIDNHKQEYEGLWQPNHLQIMQEHLRDFAVEQSDGEVLIISRTVIAPPVFDFGMRCTYIWRIAADGQVNVALSGERYGDYPHIIPCIGFTMGINGEYDQVAYYGRGPGENYADSQQANIIDIWRSTVDAMFENYPFPQNNGNRQHVRWTALTNRHGNGLLVVPQRPINFSAWHYTQENIHAAQHCNELQRSDDITLNLDHQLLGLGSNSWGSEVLDSWRVWFRDFSYGFTLLPVSGGEATAQSLASYEFGAGFFSTNLHSENKQ | – | – | – | – | – | 3.17 ± 0.0082 h | 5.26 ± 0.23 h | 12.4 ± 2 h | – | – | – | –
MNSCDFRVFLQEFGTTVHLSLPGSVSEKERLLLKLLMQGMSVTEISQYRNRSAKTISHQKKQLFEKLGIQSDITFWRDIFFQYNPEIISATGSNSHRYINDNHYHHIVTPEAISLALENHEFKPWIQPVFCAQTGVLTGCEVLVRWEHPQTGIIPPDQFIPLAESSGLIVIMTRQLMKQTADILMPVKHLLPDNFHIGINVSAGCFLAAGFEKECLNLVNKLGNDKIKLVLELTERNPIPVTPEARAIFDSLHQHNITFALDDFGTGYATYRYLQAFPVDFIKIDKSFVQMASVDEISGHIVDNIVELARKPGLSIVAEGVETQEQADLMIGKGVHFLQGYLYSPPVPGNKFISEWVMKAGG | 6.19 ± 0.079 h | 5.64 ± 0.26 h | – | – | 5.76 ± 0.27 h | 3.346 ± 0.027 h | 5.06 ± 0.71 h | 10.4 ± 2.6 h | 5.94 ± 0.41 h | 10.9 ± 0.36 h | 5.76 ± 0.1 h | 12.3 ± 1.1 h
MNSKKLCCICVLFSLLAGCASESSIDEKKKKAQVTQSNINKNTPQQLTDKDLFGNETTLAVSEEDIQAALDGDEFRVPLNSPVILVQSGNRAPETIMQEEMRKYYTVSTFSGIPDRQKPLTCNKNKDKNENEDVASAENMNWMQALRFVAAKGHQKAIIVYQDMLQTGKYDSALKSTVWSDYKNDKLTDAISLRYLVRFTLVDVATGEWATWSPVNYEYKVLPPLPDKNEASTTDMTEQQIMQLKQKTYKAMVKDLVNRYQ | – | – | – | – | 2.44 h | – | – | – | – | – | – | –
